Laboratory results reported in paper PMC7997285.

Molecular target: human IRAK1 fused to the N-terminal Nanoluc fragment N67 (human) (UniProt P51617)
Assay: split reporter (BiFC, NanoBiT)

| Substance | fold Nanoluc activity over control reactions [fold] |
| --- | --- |
| CHIKV capsid protein fused to the C-terminal Nanoluc fragment C67 (from UniProt Q8JUX5) (natural protein) | > 10 |
| RRV capsid protein fused to the C-terminal Nanoluc fragment C67 (natural protein) | > 10 |
| SINV capsid protein fused to the C-terminal Nanoluc fragment C67 (from UniProt P03316) (natural protein) | 12 |
